The text below walks through data of US20140056903A1 (Regeneron, published 2014).

The target in assay [1] is T1, human GFRα3 expressed with a C-terminal myc-myc-hexahistidine tag (human, UniProt O60609 32-374, biotinylated (sites not given) in ELISA format 2 and in the Octet cross-competition; not in SPR).
T1 construct: also called hGFRα3-mmh; hGFRα3-mmH
Nature of the assay: blocking ELISA 2, biotin-hGFRα3-mmH to coated hARTEMIN-mmH + hRET-10His. The method, then:
The equilibrated sample solutions were then transferred to the hARTEMIN-mmH-coated plate. […] Absorbance was recorded at 450 nm on a Victor X5 plate reader (Perkin Elmer) to determine the amount of free hGFRα3-hFc in the pre-equilibrated hGFRα3-hFc-antibody solutions that was able to bind to the plate coated with hARTEMIN-mmH. IC₅₀ values, defined as the concentration of antibody required to reduce the signal from a constant concentration of hGFRα3-hFc by 50%, were calculated from the data using Prism software from GraphPad. The absorbance measured at the constant amount of 120 pM hGFRα3-hFc in the absence of anti-GFRα3 antibody is defined as 0% blocking and the absorbance with no added hGFRα3-hFc is defined as 100% blocking. The observed absorbance in the wells containing the highest antibody concentration was used to calculate the maximum blocking percent shown in the table.
In the second ELISA format, the plates, samples and data were processed similarly as for the first format except both hARTEMIN-mmH and human RET with a C-terminal 10 histidine tag (hRET-10His; R&D Systems, #1168-CR/CF) were coated for the blocking ELISA experiment. The 96-well microtiter plates were coated with a mixture of 1.2 ug/ml hARTEMIN-mmH and 6.9 ug/ml hRET-10His proteins in PBS overnight at 4° C. and then blocked with a solution of 0.5% (w/v) BSA. A constant amount of biotinylated human GFRα3 with a C-terminal myc-myc-hexahistidine tag (biotin-hGFRα3-mmH; SEQ ID:370) at 1 nM was pre-mixed with varied amounts of anti-GFRα3 antibodies, ranging from 0 to ˜100 nM in serial dilutions, followed by a 1 hour incubation at RT to allow antibody-biotin-hGFRα3-mmH binding to reach equilibrium. The equilibrated samples were then transferred to the coated plate. After 1 hour of binding, the plate was washed, then the bound biotin-hGFRα3-mmH was detected using HRP conjugated streptavidin (Pierce, #N200), and colorimetric signals were developed using TMB HRP substrates.

In assay [2] the target is T2, human GFRα3 expressed with a C-terminal mFc tag (human).
T2 construct: also called hGFRα3-mFc
T2 chain: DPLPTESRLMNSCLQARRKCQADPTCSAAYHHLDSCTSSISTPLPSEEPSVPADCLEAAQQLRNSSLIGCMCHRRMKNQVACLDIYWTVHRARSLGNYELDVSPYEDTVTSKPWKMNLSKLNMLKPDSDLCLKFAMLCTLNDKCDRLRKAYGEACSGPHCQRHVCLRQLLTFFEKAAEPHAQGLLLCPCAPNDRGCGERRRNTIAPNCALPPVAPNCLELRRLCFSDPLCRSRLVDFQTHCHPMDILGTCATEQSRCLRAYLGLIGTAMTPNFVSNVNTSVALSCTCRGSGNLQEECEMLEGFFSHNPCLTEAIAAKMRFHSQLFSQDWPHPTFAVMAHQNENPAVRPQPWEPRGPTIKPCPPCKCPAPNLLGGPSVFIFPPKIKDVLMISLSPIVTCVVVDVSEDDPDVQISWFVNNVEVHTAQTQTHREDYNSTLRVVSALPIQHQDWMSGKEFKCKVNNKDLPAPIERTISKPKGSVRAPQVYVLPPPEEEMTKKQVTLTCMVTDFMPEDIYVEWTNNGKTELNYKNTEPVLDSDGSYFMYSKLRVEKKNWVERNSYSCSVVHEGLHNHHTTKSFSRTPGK
Nature of the assay: SPR, Ab captured, 25C. A digest of the protocol:
(§1)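 Anti-GFRα3 antibodies were captured on anti-mouse or anti-human IgG surfaces on a CM5 chip in HBS-EP or PBS with 0.05% P20. Myc-myc-His-tagged antigens were injected at 200 to 7.4 nM, hFc-tagged at 100 to 3.7 nM (3-fold dilutions). Rates were fitted to a 1:1 model; KD = kd/kₐ.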
Background: Surface plasmon resonance follows binding to a sensor surface in real time, without labels.

Assay [3] has as its target T3, monkey GFRα3 expressed with a C-terminal myc-myc-hexahistidine tag (monkey (Mf), UniProt O60609 32-374 (human entry), limits assumed).
T3 construct: also called MfGFRα3-mmh; MfGFRα3-mmH
T3 chain: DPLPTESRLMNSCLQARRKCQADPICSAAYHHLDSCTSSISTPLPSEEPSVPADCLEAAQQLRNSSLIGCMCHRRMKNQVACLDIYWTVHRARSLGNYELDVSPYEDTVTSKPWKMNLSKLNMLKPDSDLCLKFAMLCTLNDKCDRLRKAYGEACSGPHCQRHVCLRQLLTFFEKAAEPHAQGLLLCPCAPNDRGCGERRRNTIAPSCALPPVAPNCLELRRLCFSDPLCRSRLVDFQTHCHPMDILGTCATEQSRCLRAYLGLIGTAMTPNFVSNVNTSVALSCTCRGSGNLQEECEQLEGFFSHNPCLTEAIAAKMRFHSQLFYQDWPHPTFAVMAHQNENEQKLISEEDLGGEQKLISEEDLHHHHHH
Nature of the assay: SPR, Ab captured, 25C. A digest of the protocol:
as §1

B1: H4H2341S (antibody, human IgG4, V domains shown)
VH: EVQLVESGAEVKKSGSSVKVSCKASGGTFSRYAISWVRQAPGQGLEWMGGIIPLFGTLNYAQKFQGRVTLTTDESTSTAYMELSSLRSEDTAVYYCAVFYYGSGSYRNWFDPWGQGTLVTVSS
VL: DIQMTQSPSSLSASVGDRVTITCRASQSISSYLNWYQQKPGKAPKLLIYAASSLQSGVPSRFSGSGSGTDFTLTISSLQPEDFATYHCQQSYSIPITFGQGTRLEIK
notes: human IgG4 Fc (H4H)
In the case of B1, in assay [1], the “% max blocking” value is 98% and the IC50 (in general, the midpoint of a concentration-inhibition curve) came out at 1.62 nM. Also, in assay [2], the Kd (commonly the constant that tells how readily two partners part at equilibrium) is ≤ 0.00168 nM; the koff – broadly, the rate constant with which the complex falls apart – is ≤ 1e-06 s⁻¹; the on-rate constant (kon) (in general, a measure of how fast the partners come together) came out at 596000 M⁻¹ s⁻¹; the t1/2 came out at 192 h. For the same molecule, in assay [3], the Kd was found to be 1.39 nM, the koff stood at 0.00013 s⁻¹, the kon was found to be 93800 M⁻¹ s⁻¹ and the t1/2 was 1.48 h.

B2: H4H2342P (antibody, human IgG4, V domains shown)
VH: EVQLLESGGGLVQPGGSLRLSCAASGFTFSTYAMSWVRQAPGKGLEWVSAIRGNGVNTYYGDSMKGRFTISRDNSKDTLYLQMNSLRAEDTAVYYCAKNKWELLVFEYWGQGTLVTVSS
VL: DIQMTQSPSSLSASVGDRVTITCRASQDISNYLAWYQQKPGKVPKLLIYAASTLQSGVPFRFSGSGSGTDFTLTISSLQPEDVATYYCQKYNSAPPFGPGTKVDIK
notes: human IgG4 Fc (H4H)
Turning to B2, in assay [1], the “% max blocking” value is 97% and the IC50 was 1.08 nM. For the same molecule, in assay [2], the Kd is ≤ 0.00151 nM, the koff was ≤ 1e-06 s⁻¹, the kon came out at 661000 M⁻¹ s⁻¹ and the t1/2 was 192 h. In assay [3], the Kd came out at 5.87 nM, the koff came to 0.00055 s⁻¹, the kon stood at 93700 M⁻¹ s⁻¹ and the t1/2 was 0.35 h.

B3: H4H2345S (antibody, human IgG4, V domains shown)
VH: EVQLVESGGGLVRPGRSLRLSCAASGFTFDNYAMHWVRQVPGKGLEWVSGITWNSVSLGYADSVKGRFTISRDNAQNSLYLQMNSLRTVDTALYYCAKDRWGGSYYFDFWGQGTLVTVSS
VL: DIVMTQSPSSLSASVGDRVTITCRASQGISNYLAWYQQKPGKVPKLLIYSASTLQSGVPSRFSGSGSGTDFTLTISNLQPEDFATFFCQKYNSAPTFGGGTKVEIK
notes: human IgG4 Fc (H4H)
Regarding B3, in assay [1], the “% max blocking” value is 75% and the IC50 was found to be 14.6 nM. Besides, in assay [2], the Kd worked out at 0.0584 nM, the koff was 3.01e-05 s⁻¹, the kon is 516000 M⁻¹ s⁻¹ and the t1/2 is 6.4 h. In assay [3], this molecule gave a Kd of 28.7 nM, a koff of 0.00279 s⁻¹, a kon of 97500 M⁻¹ s⁻¹ and a t1/2 of 0.0667 h.

B4: H4H2364S (antibody, human IgG4, V domains shown)
VH: EVQLVESGGGLEQPGGSLRLSCAASGFTFSSYVMSWVRQVPGKGLEWVSVISGSGGSTYYADSVKGRFTISRDNSKNTLYLQMNSLRAEDTAVYYCAKPSSYSSSNFHYGMDVWGQGTTVTVSS
VL: DIQMTQSPYSVSASVGDRVTITCRASQGISSWLAWYQQKPGRAPKLLIYAASSLQSGVPSRFSGSGSGTDFTLTISSLQPEDFATYYCQKTNSFPFTFGPGTKVEIK
notes: human IgG4 Fc (H4H)
As to B4, in assay [1], the “% max blocking” value was 100% and the IC50 came to 1.45 nM. Further, in assay [2], the Kd is ≤ 0.0013 nM, the koff was ≤ 1e-06 s⁻¹, the kon is 771000 M⁻¹ s⁻¹ and the t1/2 is 192 h. In assay [3], binding was characterised by a dissociation constant (Kd) of 1.06 nM, the koff stood at 0.00013 s⁻¹, the kon was 122000 M⁻¹ s⁻¹ and the t1/2 is 1.48 h.

B5: H4H2357S (antibody, human IgG4, V domains shown)
VH: EVQLVESGGGLVQPGGSLRLSCAASTFTFSSYAMTWVRQAPGKGLEWVSSISGSGDSTYYADSVKGRFTISRDNSKNTLFLQMNSLRAEDTAVYYCAKKDGPGRYYVRYGMDVWGQGTTVTVSS
VL: DIQMTQSPSSVSASVGDRVTITCRASQGISSWLAWYQQKPGKAPKLLIYTTSSLQSGVPSRFSGSGSGTDFTLTISSLQPEDFATYYCQQANSFPLTFGGGTKVDIK
notes: human IgG4 Fc (H4H)
Consider B5, for which, in assay [1], the “% max blocking” value is 86% and the IC50 is 3.28 nM. In assay [2], this molecule gave an equilibrium dissociation constant (Kd) of 0.0324 nM, a koff of 2.52e-05 s⁻¹, a kon of 779000 M⁻¹ s⁻¹ and a t1/2 of 7.63 h. In assay [3], the Kd worked out at 2.26 nM, the koff amounted to 0.000315 s⁻¹, the kon is 140000 M⁻¹ s⁻¹ and the t1/2 turned out to be 0.617 h.

B6: H4H2350P (antibody, human IgG4, V domains shown)
VH: QVQLQESGPGLVKPSETLSLTCTVSGGSISTYYWSWFRQPPGKGLEWIGYIYYSGSTNHNPSLKSRVTISVDTSKNQFSLKLRSVTAADTAVYYCARVGPVGWGSWGNFDYWGQGTLVTVSS
VL: DIQLTQSPSFLSASVGDRVTITCWASQGISSYLAWSQQKPGKAPKLLIYAASTLQSGVPSRFSGSGSGTEFTLTISSLQPEDFATYYCQQLNSYPWTFGQGTKVEIK
notes: human IgG4 Fc (H4H)
For B6, in assay [1], the “% max blocking” value is 91% and the half-inhibitory concentration (IC50) is 1.29 nM. In assay [2], this molecule showed a Kd of 0.0416 nM, a koff of 2.12e-05 s⁻¹, a kon of 509000 M⁻¹ s⁻¹ and a t1/2 of 9.08 h. In assay [3], this molecule displayed a Kd of 1.71 nM, a koff of 0.000111 s⁻¹, a kon of 64700 M⁻¹ s⁻¹ and a t1/2 of 1.73 h.

B7: H4H2352S (antibody, human IgG4, V domains shown)
VH: EVQLVQSGAEVKKPGASVKVSCKASGYTFTNYGITWVRQAPGQGLEWMGWISAYNGNTGYAQKFQGRVTMTTDTSTSTAYMELRSLRSDDTAVYYCAREDYDFWRAFDIWGQGTMVTVSS
VL: EIVLTQSPGTLSLSPGERATLSCRASQSVSSTYLAWLQQKPGQAPRLLIYGASSRATGIPDRFSGSGSGTDFTLTINRLEPEDFAVYYCQQYAYSPYTFGQGTKLEIK
notes: human IgG4 Fc (H4H); also called H4H2352S-1
Regarding B7, in assay [1], the “% max blocking” value amounted to 100% and the IC50 was 0.761 nM. In addition, in assay [2], the Kd is ≤ 0.000467 nM, the koff was ≤ 1e-06 s⁻¹, the kon came to 2.14e+06 M⁻¹ s⁻¹ and the t1/2 was found to be 192 h. For the same molecule, in assay [3], the Kd was ≤ 0.0029 nM, the koff is ≤ 1e-06 s⁻¹, the kon stood at 345000 M⁻¹ s⁻¹ and the t1/2 came out at 192 h.

B8: H4H2292S (antibody, human IgG4, V domains shown)
VH: EVQLVESGGGVVQPGRSLRLSCAASGFTFSSYGMHWVRQAPGKGLEWVSFIWYDGSNKYYADSVKGRFTISRDNSKNTLYLQMNSLTAEDTAVYYCARRGILTGTTAFDIWGQGTMVTVSS
VL: DIQMTQSPSSLSASVGDRVTITCRASQSISSYLNWYQQKPGKAPKLLIYAASSLQSGVPSRFSGSGSGTDFTLTIRSLIPEDFATYYCQQTYNTPFTFGPGTKVEIK
notes: human IgG4 Fc (H4H)
In the case of B8, in assay [1], the “% max blocking” value is 100% and the IC50 came out at 1.76 nM. In assay [2], the Kd was ≤ 0.00187 nM, the kon came to 534000 M⁻¹ s⁻¹ and the t1/2 was determined as 192 h. In assay [3], this molecule came in with a Kd of 1.57 nM, a koff of 0.000122 s⁻¹, a kon of 77600 M⁻¹ s⁻¹ and a t1/2 of 1.58 h.
